This passage reports Kd results from PMC2629542.

Assay [1] has as its target Dr hemagglutinin (DraE) adhesin, Dr fimbriae (E. coli). Description: SPR.
Assay [2] shares this target. Description: SPR. The source holds these as a separate data set.

Read-outs that look alike come from different tables or passages of the source. Bounds are passed on as bounds.

In assay [1], N-CEA S32N (domain or fragment) gave a dissociation constant (Kd) of 12.8 µM. This lies in the double-digit micromolar range.

In turn, N-CEA D40A (domain or fragment) registered an equilibrium dissociation constant (Kd) in assay [1] of 48.9 µM. Against the preceding substance, the Kd is about 3.8-fold higher. As for N-CEA L28P (domain or fragment), the dissociation constant Kd in assay [1] turned out to be 6.6 µM. This Kd lies about 7.4-fold lower than the previous one. Still for that read-out and setting: for N-CEA G51D (domain or fragment) the value was 12 µM.

N-CEA V11A (domain or fragment) gave a Kd in assay [1] of 24.9 µM.

Regarding N-CEA V39A (domain or fragment), the equilibrium dissociation constant (Kd) in assay [1] was found to be 9.35 µM. Compared with the last substance, the Kd is about 2.7-fold lower. As for N-CEA F29R (domain or fragment), the equilibrium dissociation constant (Kd) in assay [1] was above 200 µM. Still for that read-out and setting: for N-CEA T52N (domain or fragment) the value was 11 µM. Still for that read-out and setting: to N-CEA F9A (domain or fragment) belongs 18.4 µM; to “N-domain of CEACAM1 (domain or fragment)”, 15.3 µM; to “CEA-CEACAM8 chimera (from UniProt P06731 35-92) (domain or fragment)”, 14.4 µM. Consider N-domain of CEA (domain or fragment), for which the Kd in assay [2] and in assay [1] was 13.1 µM in each case. Substance N-CEA Q44R (domain or fragment) came in with a Kd in assay [1] above 200 µM.
